Several values for one entry are separate records, joined by “and”; a condition that tells them apart may be missing. Equal values may be shown once. One block for each molecule: values may come before it.
Experiments:
[1] = target: T1, canine FcRn (UniProtKB-E2R0L6 [FcRn] and UniProtKB-E2RN10 [canine beta-2-microglobulin]) (canine); experiment: SPR Biacore 8K, pH 5.5, Fc captured via SASA tag on BSA, canine FcRn 400 nM
[2] = target: T1, canine FcRn; experiment: SPR Biacore 8K, pH 5.5, Fc captured via SASA tag on BSA, canine FcRn 200 nM
[3] = target: T1, canine FcRn; experiment: SPR Biacore 8K, pH 5.5, Fc captured via SASA tag on BSA, canine FcRn 100-800 nM
[4] = target: T1, canine FcRn; experiment: SPR Biacore 8K, pH 5.5, Fc captured via SASA tag on BSA, canine FcRn 200 nM; remark: listed apart in the source
[5] = target: T1, canine FcRn; experiment: as above; remark: listed apart in the source
[6] = target: T1, canine FcRn; experiment: as above; remark: listed apart in the source
[7] = target: T1, canine FcRn; experiment: as above; remark: listed apart in the source
[8] = target: T1, canine FcRn; experiment: as above; remark: listed apart in the source
[9] = target: T1, canine FcRn; experiment: SPR Biacore 8K, pH 5.5, canine FcRn 400 nM; average of the 12 wild-type runs
[10] = target: T1, canine FcRn; experiment: SPR Biacore 8K, pH 5.5, Fc captured via SASA tag on BSA, canine FcRn 200 nM; remark: listed apart in the source
[11] = target: T1, canine FcRn; experiment: as above; remark: listed apart in the source

- Kd [1]: 245 nM and 294 nM
- WT KD Avg/Variant KD [1]: 2.31 and 1.92
Molecule: canine IgG.B Fc variant G309A (SASA-tagged CH2-CH3) (Fc fusion)

- Kd [2]: 924 nM and 1050 nM
- koff [2]: 0.207 s⁻¹ and 0.209 s⁻¹
- kon [2]: 225000 M⁻¹ s⁻¹ and 199000 M⁻¹ s⁻¹
Molecule: canine IgG.B Fc variant N434S (SASA-tagged CH2-CH3) (Fc fusion)

- Kd [1]: 368 nM and 370 nM
- WT KD Avg/Variant KD [1]: 1.54 and 1.53
- koff [1]: 0.894 s⁻¹ and 0.496 s⁻¹
- kon [1]: 2.43e+06 M⁻¹ s⁻¹ and 1.34e+06 M⁻¹ s⁻¹
Molecule: canine IgG.B Fc variant Q311A (SASA-tagged CH2-CH3) (Fc fusion)

- Kd [1]: 723 nM and 1670 nM
- WT KD Avg/Variant KD [1]: 0.78 and 0.34
- kon [1]: 234000 M⁻¹ s⁻¹ and 318000 M⁻¹ s⁻¹
Molecule: canine IgG.B Fc variant M428A (SASA-tagged CH2-CH3) (Fc fusion)

- Kd [3]: 247 nM
- koff [3]: 0.102 s⁻¹
- kon [3]: 411000 M⁻¹ s⁻¹
Molecule: canine IgG.B Fc variant N434H (SASA-tagged CH2-CH3) (Fc fusion)

- Kd [1]: 464 nM and 569 nM
- WT KD Avg/Variant KD [1]: 1.22 and 0.99
- koff [1]: 0.196 s⁻¹ and 0.304 s⁻¹
- kon [1]: 422000 M⁻¹ s⁻¹ and 533000 M⁻¹ s⁻¹
Molecule: canine IgG.B Fc variant T286A (SASA-tagged CH2-CH3) (Fc fusion)

- Kd [2]: 869 nM and 774 nM
- koff [2]: 0.168 s⁻¹ and 0.169 s⁻¹
- kon [2]: 193000 M⁻¹ s⁻¹ and 218000 M⁻¹ s⁻¹
Molecule: canine IgG.B Fc variant L252M (SASA-tagged CH2-CH3) (Fc fusion)

- Kd [2]: 2290 nM and 1340 nM
- koff [2]: 0.375 s⁻¹ and 0.433 s⁻¹
- kon [2]: 163000 M⁻¹ s⁻¹ and 323000 M⁻¹ s⁻¹
Molecule: canine IgG.B Fc variant A254T (SASA-tagged CH2-CH3) (Fc fusion)

- Kd [1]: 393 nM and 876 nM
- WT KD Avg/Variant KD [1]: 1.44 and 0.65
- koff [1]: 0.407 s⁻¹ and 0.213 s⁻¹
Molecule: canine IgG.B Fc variant Y436A (SASA-tagged CH2-CH3) (Fc fusion)

- Kd [1]: 335 nM and 328 nM
- WT KD Avg/Variant KD [1]: 1.69 and 1.72
Molecule: canine IgG.B Fc variant T250A (SASA-tagged CH2-CH3) (Fc fusion)

- Kd [1]: 673 nM and 592 nM
- WT KD Avg/Variant KD [1]: 0.84 and 0.96
- koff [1]: 0.183 s⁻¹ and 0.181 s⁻¹
- kon [1]: 272000 M⁻¹ s⁻¹ and 306000 M⁻¹ s⁻¹
Molecule: canine IgG.B Fc variant D378A (SASA-tagged CH2-CH3) (Fc fusion)

- Kd [3]: 29.1 nM
- koff [3]: 0.0151 s⁻¹
- kon [3]: 520000 M⁻¹ s⁻¹
- Kd [2]: 15.9 nM
- koff [2]: 0.00968 s⁻¹
- kon [2]: 607000 M⁻¹ s⁻¹
Molecule: canine IgG.B Fc variant N434Y (SASA-tagged CH2-CH3) (Fc fusion)

- Kd [3]: 184 nM
- koff [3]: 0.046 s⁻¹
- kon [3]: 250000 M⁻¹ s⁻¹
Molecule: canine IgG.B Fc YTE variant (L252Y/A254T/T256E) (SASA-tagged CH2-CH3) (Fc fusion)

- Kd [1]: 447 nM and 298 nM
- WT KD Avg/Variant KD [1]: 1.27 and 1.9
Molecule: canine IgG.B Fc variant T256A (SASA-tagged CH2-CH3) (Fc fusion)

- Kd [1]: 325 nM and 338 nM
- WT KD Avg/Variant KD [1]: 1.74 and 1.67
Molecule: canine IgG.B Fc variant P307A (SASA-tagged CH2-CH3) (Fc fusion)

- Kd [3]: 101 nM
- koff [3]: 0.045 s⁻¹
- kon [3]: 446000 M⁻¹ s⁻¹
- Kd [2]: 40.4 nM and 75.7 nM
Molecule: canine IgG.B Fc variant N434W (SASA-tagged CH2-CH3) (Fc fusion)

- Kd [1]: 341 nM and 257 nM
- WT KD Avg/Variant KD [1]: 1.66 and 2.2
Molecule: canine IgG.B Fc variant Q285A (SASA-tagged CH2-CH3) (Fc fusion)

- Kd [1]: 472 nM and 563 nM
- WT KD Avg/Variant KD [1]: 1.2 and 1
- koff [1]: 0.169 s⁻¹ and 0.194 s⁻¹
- kon [1]: 357000 M⁻¹ s⁻¹ and 345000 M⁻¹ s⁻¹
Molecule: canine IgG.B Fc variant I308A (SASA-tagged CH2-CH3) (Fc fusion)

- Kd [3]: 173 nM
- koff [3]: 0.0476 s⁻¹
- kon [3]: 275000 M⁻¹ s⁻¹
- Kd [2]: 98.7 nM and 114 nM
- koff [2]: 0.0397 s⁻¹ and 0.041 s⁻¹
- kon [2]: 402000 M⁻¹ s⁻¹ and 358000 M⁻¹ s⁻¹
Molecule: canine IgG.B Fc variant L252Y (SASA-tagged CH2-CH3) (Fc fusion)

- Kd [2]: 693 nM and 873 nM
- koff [2]: 0.159 s⁻¹ and 0.16 s⁻¹
- kon [2]: 229000 M⁻¹ s⁻¹ and 184000 M⁻¹ s⁻¹
Molecule: canine IgG.B Fc variant D378V (SASA-tagged CH2-CH3) (Fc fusion)

- Kd [1]: 292 nM and 240 nM
- WT KD Avg/Variant KD [1]: 1.94 and 2.36
Molecule: canine IgG.B Fc variant L252A (SASA-tagged CH2-CH3) (Fc fusion)

- Kd [1]: 266 nM and 359 nM
- WT KD Avg/Variant KD [1]: 2.13 and 1.58
- koff [1]: 0.229 s⁻¹ and 0.0997 s⁻¹
Molecule: canine IgG.B Fc variant H433A (SASA-tagged CH2-CH3) (Fc fusion)

- Kd [3]: 182 nM
- koff [3]: 0.0801 s⁻¹
- kon [3]: 440000 M⁻¹ s⁻¹
- Kd [2]: 107 nM and 159 nM
- koff [2]: 0.0524 s⁻¹ and 0.0633 s⁻¹
- kon [2]: 488000 M⁻¹ s⁻¹ and 399000 M⁻¹ s⁻¹
Molecule: canine IgG.B Fc variant N434R (SASA-tagged CH2-CH3) (Fc fusion)

- Kd [2]: 372 nM and 439 nM
- koff [2]: 0.566 s⁻¹ and 0.696 s⁻¹
- kon [2]: 1.52e+06 M⁻¹ s⁻¹ and 1.59e+06 M⁻¹ s⁻¹
Molecule: canine IgG.B Fc variant Q311V (SASA-tagged CH2-CH3) (Fc fusion)

- Kd [1]: 340 nM and 317 nM
- WT KD Avg/Variant KD [1]: 1.66 and 1.78
Molecule: canine IgG.B Fc variant A254S (SASA-tagged CH2-CH3) (Fc fusion)

- Kd [1]: 618 nM and 747 nM
- WT KD Avg/Variant KD [1]: 0.76 and 0.92
- koff [1]: 0.369 s⁻¹ and 0.18 s⁻¹
- kon [1]: 598000 M⁻¹ s⁻¹ and 241000 M⁻¹ s⁻¹
- Kd [2]: 1320 nM and 1570 nM
- koff [2]: 0.223 s⁻¹ and 0.239 s⁻¹
- kon [2]: 168000 M⁻¹ s⁻¹ and 152000 M⁻¹ s⁻¹
Molecule: canine IgG.B Fc variant E380A (SASA-tagged CH2-CH3) (Fc fusion)

- Kd [1]: 457 nM and 494 nM
- WT KD Avg/Variant KD [1]: 1.24 and 1.14
- koff [1]: 0.237 s⁻¹ and 0.477 s⁻¹
- kon [1]: 518000 M⁻¹ s⁻¹ and 966000 M⁻¹ s⁻¹
- Kd [2]: 573 nM and 629 nM
- koff [2]: 0.156 s⁻¹ and 0.164 s⁻¹
- kon [2]: 272000 M⁻¹ s⁻¹ and 261000 M⁻¹ s⁻¹
Molecule: canine IgG.B Fc variant N434A (SASA-tagged CH2-CH3) (Fc fusion)

- Kd [2]: 2590 nM and 2840 nM
- koff [2]: 0.258 s⁻¹ and 0.268 s⁻¹
- kon [2]: 99600 M⁻¹ s⁻¹ and 94300 M⁻¹ s⁻¹
Molecule: canine IgG.B Fc variant T250Q (SASA-tagged CH2-CH3) (Fc fusion)

- Kd [1]: 422 nM and 548 nM
- WT KD Avg/Variant KD [1]: 1.34 and 1.03
Molecule: canine IgG.B Fc variant K315A (SASA-tagged CH2-CH3) (Fc fusion)

- Kd [2]: 2480 nM and 1660 nM
- koff [2]: 0.284 s⁻¹ and 0.287 s⁻¹
- kon [2]: 114000 M⁻¹ s⁻¹ and 172000 M⁻¹ s⁻¹
Molecule: canine IgG.B Fc variant T250E (SASA-tagged CH2-CH3) (Fc fusion)

- Kd [4]: 2050 nM and 2990 nM
- koff [4]: 0.31 s⁻¹ and 0.315 s⁻¹
- kon [4]: 151000 M⁻¹ s⁻¹ and 105000 M⁻¹ s⁻¹
- Kd [5]: 502 nM and 784 nM
- koff [5]: 0.169 s⁻¹ and 0.207 s⁻¹
- kon [5]: 336000 M⁻¹ s⁻¹ and 264000 M⁻¹ s⁻¹
- Kd [6]: 884 nM and 862 nM
- koff [6]: 0.21 s⁻¹ and 0.218 s⁻¹
- kon [6]: 237000 M⁻¹ s⁻¹ and 253000 M⁻¹ s⁻¹
- Kd [7]: 639 nM and 692 nM
- koff [7]: 0.17 s⁻¹ and 0.171 s⁻¹
- kon [7]: 267000 M⁻¹ s⁻¹ and 247000 M⁻¹ s⁻¹
- Kd [8]: 1560 nM and 754 nM
- koff [8]: 0.179 s⁻¹ and 0.182 s⁻¹
- kon [8]: 115000 M⁻¹ s⁻¹ and 242000 M⁻¹ s⁻¹
- Kd [9]: 566 nM
- Kd [10]: 955 nM and 1310 nM
- koff [10]: 0.181 s⁻¹ and 0.209 s⁻¹
- kon [10]: 190000 M⁻¹ s⁻¹ and 159000 M⁻¹ s⁻¹
- Kd [3]: 3150 nM
- koff [3]: 0.527 s⁻¹
- kon [3]: 168000 M⁻¹ s⁻¹
- Kd [2]: 8990 nM and 3110 nM
- koff [2]: 0.347 s⁻¹ and 0.354 s⁻¹
- kon [2]: 38700 M⁻¹ s⁻¹ and 114000 M⁻¹ s⁻¹
- Kd [11]: 1710 nM and 2660 nM
- koff [11]: 0.288 s⁻¹ and 0.326 s⁻¹
- kon [11]: 168000 M⁻¹ s⁻¹ and 123000 M⁻¹ s⁻¹
B1: wild-type canine IgG.B Fc (SASA-tagged CH2-CH3) (Fc fusion, part only; not given: serum albumin single-domain tag, part only)
chain, part: APEMLGGPSVFIFPPKPKDTLLIARTPEVTCVVVDLDPEDPEVQISWFVDGKQMQTAKTQPREEQFNGTYRVVSVLPIGHQDWLKGKQFTCKVNNKALPSPIERTISKARGQAHQPSVYVLPPSREELSKNTVSLTCLIKDFFPPDIDVEWQSNGQQEPESKYRTTPPQLDEDGSYFLYSKLSVDKSRWQRGDTFICAVMHEALHNHYTQESLSHSPGK

Source: patent publication US20240166748A1
